Results on three molecules are retold here after patent publication US20250332297A1, “DLL3-SPECIFIC BINDING CONSTRUCTS AND THEIR USE IN RADIOTHERAPY” (MOLECULAR PARTNERS AG, priority 2024, published 2025).

Assay [1] concerns the target T1, mouse DLL3-ECD (recombinant extracellular domain of mouse DLL3) (mouse, UniProt O88516 33-490).
T1 construct: extracellular domain
T1 sequence (looked up): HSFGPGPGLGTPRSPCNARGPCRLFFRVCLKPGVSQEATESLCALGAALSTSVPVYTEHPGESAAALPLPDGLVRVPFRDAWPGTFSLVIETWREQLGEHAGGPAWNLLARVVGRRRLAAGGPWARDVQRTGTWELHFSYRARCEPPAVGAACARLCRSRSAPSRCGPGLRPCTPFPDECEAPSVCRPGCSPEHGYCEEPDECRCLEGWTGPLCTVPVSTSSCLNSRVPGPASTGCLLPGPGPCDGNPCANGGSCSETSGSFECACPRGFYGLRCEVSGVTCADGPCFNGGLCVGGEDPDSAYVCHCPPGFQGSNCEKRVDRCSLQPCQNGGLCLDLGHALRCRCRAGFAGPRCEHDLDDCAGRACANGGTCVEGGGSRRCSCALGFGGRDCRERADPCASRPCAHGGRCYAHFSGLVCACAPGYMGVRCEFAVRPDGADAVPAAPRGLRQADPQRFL
The experiment in a line: SPR (ProteOn), biotinylated DARPin on chip, mouse DLL3-ECD as analyte, 1:1 Langmuir fit. As for the experimental part: (§1) SPR multi-trace analyses were performed similarly as described in Examples 1 and 11. Here, the binding kinetics of immobilized DARPin proteins to the extracellular domain of DLL3 (DLL3-ECD) from human, cynomolgus monkey, mouse and pig were determined.
(§2) Streptavidin SAHC200M (Xantec) SPR chip was conditioned according to the manufacturer's protocol.

The target of assay [2] is T2, Cyno DLL3-ECD (extracellular domain of cynomolgus macaque DLL3, residues 27 to 466, Avi-tag, 3C site, Fc knob … (cynomolgus macaque, UniProt A0A2K5WSR1 27-464, biotinylated at the Avi-tag (Example 11))).
T2 construct: range 27-466; also called cyno ECD; cynomolgus monkey DLL3; not shown: Avi-tag, 3C protease recognition site and Fc knob into hole
T2 sequence: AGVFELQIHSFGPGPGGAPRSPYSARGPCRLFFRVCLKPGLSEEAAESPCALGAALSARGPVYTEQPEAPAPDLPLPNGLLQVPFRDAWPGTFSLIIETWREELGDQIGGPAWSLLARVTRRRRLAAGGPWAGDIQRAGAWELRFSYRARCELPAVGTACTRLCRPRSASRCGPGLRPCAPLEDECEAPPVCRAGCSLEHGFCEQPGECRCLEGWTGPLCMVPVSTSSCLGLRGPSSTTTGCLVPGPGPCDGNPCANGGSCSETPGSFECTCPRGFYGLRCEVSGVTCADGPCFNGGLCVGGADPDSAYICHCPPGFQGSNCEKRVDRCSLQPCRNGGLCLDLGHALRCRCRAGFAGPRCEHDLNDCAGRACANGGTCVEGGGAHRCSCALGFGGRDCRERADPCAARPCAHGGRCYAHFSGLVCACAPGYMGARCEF
The experiment in a line: SPR (ProteOn), biotinylated DARPin on chip, cyno DLL3-ECD as analyte, 1:1 Langmuir fit. As for the experimental part: as §1, §2

Assay [3] concerns the target pig DLL3-ECD (recombinant extracellular domain of pig DLL3) (pig). The experiment in a line: SPR (ProteOn), biotinylated DARPin on chip, pig DLL3-ECD as analyte, 1:1 Langmuir fit.
Assay [4] addresses T3, Human DLL3-ECD (recombinant extracellular domain of human DLL3, Examples 11, 17 and 19) (human, UniProt Q9NYJ7 27-466, biotinylated at the Avi-tag where immobilised (Examples 11 and 19)).
T3 construct: also called hDLL3-ECD; human ECD; not shown: Avi-tag and Fc knob into hole (order depends on the format)
T3 sequence: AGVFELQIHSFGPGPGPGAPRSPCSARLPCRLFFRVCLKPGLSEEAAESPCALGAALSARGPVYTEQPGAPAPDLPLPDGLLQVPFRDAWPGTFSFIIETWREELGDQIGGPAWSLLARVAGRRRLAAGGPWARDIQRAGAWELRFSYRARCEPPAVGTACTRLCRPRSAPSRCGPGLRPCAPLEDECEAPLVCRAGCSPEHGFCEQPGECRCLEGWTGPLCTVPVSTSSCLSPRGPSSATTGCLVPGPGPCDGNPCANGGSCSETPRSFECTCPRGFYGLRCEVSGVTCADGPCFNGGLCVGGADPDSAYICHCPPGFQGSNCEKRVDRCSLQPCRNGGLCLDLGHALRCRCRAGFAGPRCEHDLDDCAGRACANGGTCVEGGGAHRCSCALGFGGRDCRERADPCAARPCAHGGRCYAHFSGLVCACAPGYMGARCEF
The experiment in a line: SPR (ProteOn), biotinylated DARPin on chip, human DLL3-ECD as analyte, 1:1 Langmuir fit. The procedure: as §1, §2

The target of another assay is pig DLL3-ECD. The experiment in a line: SPR, immobilized DARPin, binding of pig DLL3-ECD (Example 17). Particulars: immobilized biotinylated DARPin, DLL3-ECD as analyte, 1:1 Langmuir, Table 20. The procedure:
(§3) Kinetic binding parameters and binding affinities of two domain (2D) ankyrin repeat protein MAM279 and single domain (1 D) ankyrin repeat protein MAM093 to DLL3 from different species were determined. The DLL3-specific ankyrin repeat domain of MAM093 is identical to the DLL3-specific ankyrin repeat domain comprised in MAM279.
(§4) SPR multi-trace analyses were performed similarly as described in Examples 1 and 11. Here, the binding kinetics of immobilized DARPin proteins to the extracellular domain of DLL3 (DLL3-ECD) from human, cynomolgus monkey, mouse and pig were determined. Various concentrations of recombinant DLL3-ECD starting from 500 nM were applied to immobilized biotinylated 2D DARPin (MAM279; SEQ ID NO: 11) or 1 D DARPin (MAM093; SEQ ID NO: 1) (both with a Glycine-Serine (GS) at the N-terminal end) for on-rate and off-rate measurements.
(§5) Streptavidin SAHC200M (Xantec) SPR chip was conditioned according to the manufacturer's protocol. Biotinylated DARPins were immobilized to a coating density of 27 resonance units (RU) for 1D DARPin and 25 RU for 2D DARPin. All analytes (3-fold dilution ranging from 500-6.17 nM) were injected in succession for 240 s and dissociation was recorded for 10800 s using a constant flow of 100 μl/min.

The target in another assay is T4, mouse DLL3-ECD (Mus musculus, UniProt O88516).
T4 construct: the extracellular domain of DLL3 (DLL3-ECD) from human, cynomolgus monkey, mouse and pig
T4 sequence (O88516 33-490 limits assumed): T1 sequence (looked up)
The experiment in a line: SPR, immobilized DARPin, binding of mouse DLL3-ECD (Example 17). Particulars: immobilized biotinylated DARPin, DLL3-ECD as analyte, 1:1 Langmuir, Table 20. The procedure:
as §3, §4, §5

The next assay concerns the target T5, Human DLL3-ECD (Homo sapiens, UniProt Q9NYJ7).
T5 construct: the extracellular domain of DLL3 (DLL3-ECD) from human, cynomolgus monkey, mouse and pig
T5 sequence (Q9NYJ7 27-492 limits assumed): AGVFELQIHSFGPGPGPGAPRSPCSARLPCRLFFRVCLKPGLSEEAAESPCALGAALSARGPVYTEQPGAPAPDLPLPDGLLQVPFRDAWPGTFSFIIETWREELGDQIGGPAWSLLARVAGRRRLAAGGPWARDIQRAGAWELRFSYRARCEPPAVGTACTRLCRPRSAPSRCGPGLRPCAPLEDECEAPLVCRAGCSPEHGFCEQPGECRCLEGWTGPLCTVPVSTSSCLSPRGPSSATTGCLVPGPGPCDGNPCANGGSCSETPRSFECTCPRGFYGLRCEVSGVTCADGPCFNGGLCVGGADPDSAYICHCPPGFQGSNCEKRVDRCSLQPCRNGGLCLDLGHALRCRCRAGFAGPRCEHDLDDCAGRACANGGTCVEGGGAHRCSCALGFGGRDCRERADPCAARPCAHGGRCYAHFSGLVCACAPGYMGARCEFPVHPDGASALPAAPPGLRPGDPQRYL
The experiment in a line: SPR, immobilized DARPin, binding of human DLL3-ECD (Example 17). As to conditions: immobilized biotinylated DARPin, DLL3-ECD as analyte, 1:1 Langmuir, Table 19. As for the experimental part:
as §3, §4, §5

The target in another assay is Cyno DLL3-ECD. The experiment in a line: SPR, immobilized DARPin, binding of cyno DLL3-ECD (Example 17). Also on record: species or system cynomolgus monkey. As to conditions: immobilized biotinylated DARPin, DLL3-ECD as analyte, 1:1 Langmuir, Table 19. As for the experimental part: as §3, §4, §5

B1: Biotinylated 2D DARPin MAM279 (SEQ ID NO: 11) with a Glycine-Serine (GS) at the N-terminal end (designed binder)
chain: GSDLGKKLLEAARAGQDDEVRELLKAGADVNAKDYFSHTPLHLAARNGHLKIVEVLLKAGADVNAKDFAGKTPLHLAADAGHLEIVEVLLKAGADVNAQDIFGKTPADIAADAGHEDIAEVLQKAAGSPTPTPTTPTPTPTTPTPTPTGSDLGKKLLAAAAQGQDDEVRELLKAGANVNAKDLFGYTPLHLAAWRGHLEIVEVLLKAGADVNAKDAAGETPLHLAAWFGHLEIVEVLLKAGADVNAQDLQGKTPADLAAKEGHEDIAEVLQKAA
modifications: biotinylated (site and any tag used not stated)
notes: also called Biotinylated DARPin MAM279
B1: the Kd in assay [1] was 83.9 nM; in assay [2] it was 8.88 nM; in assay [3] it was 17.3 nM; in assay [4], 0.127 nM. For the same molecule, the off-rate constant (koff) in assay [1] stood at 0.00282 s⁻¹; in assay [2], 0.000939 s⁻¹; in assay [3], 0.000319 s⁻¹; in assay [4] it was 1.31e-05 s⁻¹. The kon in assay [1] worked out at 33700 M⁻¹ s⁻¹; in assay [2] it was 106000 M⁻¹ s⁻¹; in assay [3], 18400 M⁻¹ s⁻¹; in assay [4], 102000 M⁻¹ s⁻¹.

B2: Biotinylated 1D DARPin MAM093 (SEQ ID NO: 1) with a Glycine-Serine (GS) at the N-terminal end (designed binder)
chain: GSDLGKKLLAAAAQGQDDEVRELLKAGANVNAKDLFGYTPLHLAAWRGHLEIVEVLLKAGADVNAKDAAGETPLHLAAWFGHLEIVEVLLKAGADVNAQDLQGKTPADLAAKEGHEDIAEVLQKAA
modifications: biotinylated (site and any tag used not stated)
notes: also called Biotinylated DARPin MAM093
On to B2, for which the Kd in assay [1] came out at 149 nM; in assay [2], 8.72 nM; in assay [3], 14.3 nM; in assay [4], 0.13 nM. In addition, the koff was 0.004 s⁻¹ in assay [1], 0.000825 s⁻¹ in assay [2], 0.00033 s⁻¹ in assay [3] and 1.18e-05 s⁻¹ in assay [4]. The kon in assay [1] was found to be 26700 M⁻¹ s⁻¹; in assay [2] it was 94700 M⁻¹ s⁻¹; in assay [3] it was 23100 M⁻¹ s⁻¹; in assay [4], 90700 M⁻¹ s⁻¹.

B3: MAM093: Ankyrin repeat domain specific for DLL3 (SEQ ID NO: 1); single domain (1D) DARPin (protein)
chain: DLGKKLLAAAAQGQDDEVRELLKAGANVNAKDLFGYTPLHLAAWRGHLEIVEVLLKAGADVNAKDAAGETPLHLAAWFGHLEIVEVLLKAGADVNAQDLQGKTPADLAAKEGHEDIAEVLQKAA
modifications: Ankyrin repeat domain specific for DLL3 (MAM093)
notes: single domain (1D) DARPin
Take B3: on pig DLL3-ECD, the affinity, expressed as Kd, was 14.3 nM; the “Koff pig DLL3-ECD” value amounted to 0.00033 s⁻¹; the “Kon pig DLL3-ECD” value was 23100 M⁻¹ s⁻¹. Further, in the assay with mouse DLL3-ECD, the affinity, expressed as Kd, was 149 nM; the “Koff mouse DLL3-ECD” value was determined as 0.004 s⁻¹; the “Kon mouse DLL3-ECD” value was determined as 26700 M⁻¹ s⁻¹. For the same molecule, in the assay with Human DLL3-ECD, binding was put at a Kd of 0.13 nM, the “Koff Human DLL3-ECD” value was 1.18e-05 s⁻¹ and the “Kon Human DLL3-ECD” value was found to be 90700 M⁻¹ s⁻¹. At Cyno DLL3-ECD, the affinity, expressed as Kd, was 8.72 nM; the “Koff Cyno DLL3-ECD” value worked out at 0.000825 s⁻¹; the “Kon Cyno DLL3-ECD” value was 94700 M⁻¹ s⁻¹.
